Reference: patent US20180147281A1 (Astellas, published 2018)

Legend:
[1] = biological target: T1, human NGF (R&D Systems, 256-GF-100/CF) (human, UniProt P01138 122-241, in the competitive ELISAs biotinylated with EZ-Link NHS-PEG4-Biotin (sites not given); unlabelled when immobilized in the binding ELISA); test: human NGF-trkA competitive ELISA; geometric average of three tests
T1 construct: Commercial recombinant protein; also called biotinylated human NGF; nerve growth factor

[2] = biological target: T1, human NGF (R&D Systems, 256-GF-100/CF); test: ELISA, human NGF immobilized, detection with biotinylated anti-human kappa light-chain antibody; geometric average of two runs
[3] = biological target: T1, human NGF (R&D Systems, 256-GF-100/CF); test: human NGF-trkA competitive ELISA, IC50 after against before incubation
[4] = biological target: T1, human NGF (R&D Systems, 256-GF-100/CF); test: human NGF-trkA competitive ELISA after incubation of the antibody 14 days at pH 6 and 50 C; geometric average of two runs
[5] = biological target: T1, human NGF (R&D Systems, 256-GF-100/CF); test: human NGF-trkA competitive ELISA, trkA immobilized, biotinylated human NGF; geometric average of two runs

B1: Tanezumab (antibody, V domains shown)
VH: QVQLQESGPGLVKPSETLSLTCTVSGFSLIGYDLNWIRQPPGKGLEWIGIIWGDGTTDYNSAVKSRVTISKDTSKNQFSLKLSSVTAADTAVYYCARGGYWYATSYYFDYWGQGTLVTVSS
VL: DIQMTQSPSSLSASVGDRVTITCRASQSISNNLNWYQQKPGKAPKLLIYYTSRFHSGVPSRFSGSGSGTDFTFTISSLQPEDIATYYCQQEHTLPYTFGQGTKLEIKR
- IC50 [1]: 0.86 µg/mL
- EC50 [2]: 0.146 µg/mL

B2: fully human anti-human NGF antibody 1-15 (N52D-A)-Fab' fragment (Fab, V domains shown)
VH: QVQLQQWGAGLLKPSETLSLTCAVYGGSFSGYYWSWVRQPPGKGLEWIGEIDHSGSTNNNPSLKSRVTISVGTSKNQFSLKLSSVTAADTAVYYCSRDGGPESGMGAFDIWGQGTMVTVSS
VL: not shown
- increase rate of the IC50 value after incubation for 14 days at 50 C relative to that before the incubation [3]: 59%
- IC50 [4]: 0.47 µg/mL
- IC50 [5]: 0.3 µg/mL
